Test results published in the DeepSol protein solubility set.

Assay: soluble on expression in E. coli; label from the status in PepcDB or PDB records

Sequence | soluble on expression in E. coli
GAMALVDGFLELERSSGKLEWSAILQKMASDLGFSKILFGLLPKDSQDYENAFIVGNYPAAWREHYDRAGYARVDPTVSHCTQSVLPIFWEPSIYQTRKQHEFFEEASAAGLVYGLTMPLHGARGELGALSLSVEAENRAEANRFMESVLPTLWMLKDYALQSGAGLAFEHPVSK | soluble
GAMVSGQIMHAVGEEGGHVKYVCKIENYDQSTQVTWYFGVRQLENSEKYEITYEDGVAILYVKDITKLDDGTYRCKVVNDYGEDSSYAELFVKGVRE | soluble
GANNDMPVEQILEAELAVDPKIDTYIDAQKDPVTNICQAADKQLFTLVEWAKRIPHFTELPLEDQVILLRAGWNELLIAGFSHRSIMAKDGILLATGLHVHRSSAHQAGVGTIFDRVLTELVAKMRDMKMDKTELGCLRAVVLFNPDAKGLTAVQEVEQLREKVYASLEEYTKSRYPEEPGRFAKLLLRLPALRSIGLKCLEHLFFFKLIGDQPIDTFLMEMLENPSPAT | soluble
GARIKTLSVSRPIIYGNTAKKMGSVKPPNAPAEHTHLWTIFVRGPQNEDISYFIKKVVFKLHDTYPNPVRSIEAPPFELTETGWGEFDINIKVYFVEEANEKVLNFYHRLRLHPYANPVPNSDNGNEQNTTDHNSKDAEVSSVYFDEIVFNEPNEEFFKILMSR | soluble
GFSSEVLKKAYDDTEDIEDQLQQAEGRLFEISQHNMKQDVQPIDPIIKEALGEIQIAANRKEGLSGQPSGFPAIDKLTAGWQASDLIIIAARPAMGKTAFVLSMAKNMAIDYNIPVAIFNLEMSSVQLVKRLMSNVCEIPGEKLKTGRLESHEWVQLDTKLKDFENKPLYIDDTPSLSVFELRTKSRRLVREYGVKVIIIDYLQLMNASGMSFGNREQEVSTISRSLKVLAKELKIPIIALSQLNRSVETRQGDINSKRPQLSDLRESGAIEQDADMVCFIHRPEYYKITEDQQGNSLLGIGEFIIAKHRNGPVDDVRLRFRSEFAKFLPLEAESMVKRHSRIGGSPVEMGVGNGSFAPPLPPPEDNPLLSGPYSSGTSEADFLAEASGIDNPF | not soluble
GGDGNITTENIPVSEYDCLELEGGGMVVNYTQSDAPEGLEIKTDRNIFEKYEFNVENHKLKIRPKKEFRKHTNFRPTEFMVTANSRNLKKLAAAGSTHVNINSPLQAEEFEAGLAGSGIIQFHDTASFTNLKIEIAGSGDFVGHKVYCEELNGDMAGSNTIVLGGTVGIAEFSIAGSGTVRAFDCTMDELECKIAGSGDIEAFVVNKIKAEIAGSGSVKYKGDPQDIQKKVMGSGKIEKVE | soluble
GGKFVQAWSQFPAGKWGVEPNPVSVVPTHGEVLNDGKVKEVPWVLELTPMPVSGTTVGKDGINPDEPMTLETVDRFAREIGFKGRYQLNLPKGEDGVWTLSQDSMSYDMISPFADRTVHIDQYSGKILADIRFDDYNPFGKFMAASIALHMGTLG | not soluble
GGVDSHSHIAGAKVNTGRTLRPEDSKKDLFSKEGLRQGSGFSIPSTFKTGYQYSGMGYTTVIEAAMPPLVARHTHEEFMDLPQIDKAAMPLFGNSWMVLEYLKNGDLSMCAAYVAWLLKVTKGYAIKIVNPGGTEAWGWGKNVHGLDDEVPYFGITPREIVTGLAKVNEMLGLPHSIHVHPNNLGHPGNWETTIDTMDCVKDIKAKPKFGDRDTVYYNTHLQFHSYGGTSWKDCVSKGVETADYVNKNKHVMIDVGQVTLDETTTMTADGPMEYDLHMTNGLKWANCDVELETGSGVVPFIYSPKGPVYSLQWAIGLDIFLYTQPEKLILTTDHPNAGPFVRYPRVIAWLLSKEYRNDWIQNRVHKWAAEKSHITETDREYSMYEIAQITRANSSKVLGLSGDRGHLGAGAKADISIYDIDPEEKSGKKIEKAFLEAAYVLKDGEIVVKNG | not soluble
GGWGFLASFAAGIGLRHAEVATLGRASAPAEAQAAAADVREAGQASGAIEYGADRSEHPKVAAGAVMLDVLSFGNLLERSLEVLLVTLLGAMLYQHWDWRA | not soluble
GHMGEEQYNRYQQYGAEECVLQMGGVLCPRPGCGAGLLPEPDQRKVTCEGGNGLGCGFAFCRECKEAYHEGECSAVFEAS | soluble
GHMGQSPDAPIADTPGEQQEINLYSSRHYNTDNELYAKFTAETGIKVNLIEGKADELLERIKSEGANSPADVLLTVDLARLWRAEEDGIFQPVQSEILETNVPEYLRSPDGMWFGFTKRARVIMYNKGKVKPEELSTYEELADPKWKGRVIIRSSSNEYNQSLVASLVVADGEESTLAWAKGFVSNFAREPQGNDTAQIEAVSSGEADLTLANTYYMGRLLESEDPAQKAIAENVGVFFPNQEGRGTHVNVSGVGVVKTAPNREGAVKFIEFLVSEPAQAFLAQNNYEYPVLAGVPLNKSVASFGEFKSDTTSLDKLGPALAPATKIMNEAGWK | soluble
GHMTWEHNEFMQMTVKPFLIPADKVAHVQPGNYLDHALLVLTKTGYSAIPVLDTSYKLHGLISMTMMMDAILGLERIEFERLETMKVEEVMNRNIPRLRLDDSLMKAVGLIVNHPFVCVENDDGYFAGIFTRREVLKQLNKQLHRPNGGRKLGRKEAEQ | soluble
GIDAAEYVLYGGKGGVGKTTCAAATALASARDDTATLVVSTDPAHSLSDTLDADIPATPTRIREDIPLYAAEIDPEAAVGEGPLGVEEDALGGVGELLGGDGMFGGGAGGAAGAGQAEDPIGGEEGLLGGSMPGADEAAALRLLLDYVDDDRFDRVVIDTAPTGHTLRLLELPETMDSMVGKILQLRERFSGMMDNLTGMFGDDQDVDAEAGIEDLQELSDRIEHLRGILQDPQRTDFRIVMVPEELSVVESERLLAQLGEFNIPVSTVVVNRVMQDPSEVLGEDVDIAGPNHADCEFCARRWQVQQDALARSQDMFRGHDVRRVPLFAEEVRGERLLSVVAACLD | not soluble
GIDPFTGIDPFTGTQACITAASAVSGIIADLDTTIMFATAGTLNREGAETFADHREGILKTAKVLVEDTKVLVQNAAGSQEKLAQAAQSSVATITRLADVVKLGAASLGAEDPETQVVLINAVKDVAKALGDLISATKAAAGKVGDDPAVWQLKNSAKVMVTNVTSLLKTVKAVEDEATKGTRALEATTEHIRQELAVFCSPEPPAKTSTPEDFIRMTKGITMATAKAVAAGNSCRQEDVIATANLSRRAIADMLRACKEAAFHPEVAPDVRLRALHYGRECANGYLELLDHVLLTLQKPNPDLKQQLTGHSKRVAGSVTELIQAAEAMKGT | soluble
GIDPFTQRLNFGDDIPSALRIAKKKRWNSIEEKRISQENELHAYLSKLILAEKERELDDRVKQSDDSQNGGDISKMKSKHDKYLMDMDELFSQVDEKRKKREIPDYLCGKISFELMREPCITPSGITYDRKDIEEHLQRVGHFDPVTRSPLTQDQLIPNLAMKEVIDAFIQENGWVEDY | soluble
GINAGKMAMIVTDKGEQVTKAINACCNRGSTILKGMGGYKMDKKEVVICACNNKEMFFVQQVVKEVDPAAFTVVLESNEVHGEGFKMFQIGEGNVTVQTGLRSCCADRAKMQRQ | not soluble
GISYSVEADPDTTAKAMLRERQMSFKHSKAIAREIKGKTAGEAVDYLEAVIEGDQPVPFKQHNSGVGHKSKVDGWDAGRYPEKASKAFLDLLENAVGNADHQGFDGEAMTIKHVAAHKVGEQQGRKPRAMGRASAWNSPQVDVELILEEPEVED | soluble
GKSDKIIPIAENKEAKAKYDILETYEAGIVLKGSEVKSLREKGTVSFKDSFVRIENGEAWLYNLYIAPYKHATIENHDPLRKRKLLLHKREIMRLYGKVQEKGYTIIPLKLYWKNNKVKVLIALAKGKKLYDRRRELKEKAMKRELEREFKGKIHL | soluble
GKTFPSRAYIDGTLSARVIAHEFGHNLGLSHAKALDCGDASVSNNCSVIEYGDSYDVMGTPDMGYINTYYKERMGWLNDAESPNILTATQDGLYEIAEYETQDITQNIALKIPRGVNPNSGLKEWFYVEYRQAMGYDQFLDDRSYMLFRGDVTDGVIVRLVEEGAEESYILHMKPNSDYSQVYGRKDWKDTALPVGDSFTDP | not soluble
GKVGDRPIEQQLALGYIKALTEHDYQTLSKYYNRDSVFYDKTADTKYIGTRSIIAFLQRSHEGVLEFDFNIEHMFNTGPLVVMIGNYHLRGPGEQFGKPGKIIDIAIPGVTTLKFDPNTQRLTEQVDLMDYQTMSDQLQSQ | soluble
